Test [1] addresses P66 with a c-Myc epitope tag inserted C-terminally to D303 (Borrelia burgdorferi).
Test [2] has the same target. The test can be described thus: native gel or EMSA; Blue native PAGE (4-16% Bis-Tris) of membrane B-fractions solubilised in 1.25% digitonin; immunoblot with anti-P66 or anti-c-Myc. Background: In EMSA bound probe runs differently from free probe, usually more slowly.
Test [3] concerns the target P66 with a c-Myc epitope tag inserted C-terminally to E33 (Borrelia burgdorferi).
The target is the same in test [4]. The test can be described thus: native gel or EMSA; Blue native PAGE (4-16% Bis-Tris) of membrane B-fractions solubilised in 1.25% digitonin; immunoblot with anti-P66 or anti-c-Myc.

Several values for one entry are separate records, joined by “and”; a condition that tells them apart may be missing. Identical values can stand only once. Bounds are passed on as bounds.

The term stoichiometry N denotes the number of molecules, sites or subunits per partner or assembly. “P66 with a c-Myc epitope tag inserted C-terminally to D303 (natural protein)”: the single-channel conductance of the outer membrane fraction in black lipid bilayers (1 M KCl, 20 mV) in test [1] was less than 4 nS. Further, in test [2], the stoichiometry N is 3 and 5.

As for “P66 with a c-Myc epitope tag inserted C-terminally to E33 (natural protein)”, in test [3], the single-channel conductance of the outer membrane fraction in black lipid bilayers (1 M KCl, 20 mV) was less than 4 nS. Besides, the stoichiometry N in test [4] turned out to be 3.

The values are drawn from article PMC9539438.
